Laboratory results: patent US20210393689A1 (JUNO THERAPEUTICS, published 2021)

Biological target: T1, murine GPRC5D (murine, UniProt Q9JIL6 1-344)
T1 construct: whole, on cells; also called mGPRC5D; mouse GPRC5D
T1 sequence (looked up): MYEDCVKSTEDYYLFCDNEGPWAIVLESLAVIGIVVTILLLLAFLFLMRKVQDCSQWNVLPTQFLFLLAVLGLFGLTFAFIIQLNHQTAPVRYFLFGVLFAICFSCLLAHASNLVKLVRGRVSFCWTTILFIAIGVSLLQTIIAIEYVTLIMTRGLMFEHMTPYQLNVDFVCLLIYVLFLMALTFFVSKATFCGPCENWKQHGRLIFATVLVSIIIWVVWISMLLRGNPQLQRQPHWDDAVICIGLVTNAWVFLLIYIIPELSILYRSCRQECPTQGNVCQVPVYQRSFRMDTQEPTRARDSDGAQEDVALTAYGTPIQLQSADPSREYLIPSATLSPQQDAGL
Experiment: Jurkat Nur77-RFP reporter activation after 1:1 co-culture with K562 cells expressing mGPRC5D (indirect read-out)
Protocol: K562 cells were transduced to express human (hGPRC5D), cGPRC5D or mGPRC5D. The Jurkat Nur77-RFP activation reporter line described above was transduced with polynucleotides constructs encoding CARs described in Example 3. […] Reporter cells were also incubated with parental K562 cells as a negative control.

binding result: no binding
B1: GPRC5D-203 VL/VH - long (anti-GPRC5D CAR: GPRC5D-203 VL/VH scFv, long spacer, CD28 transmembrane domain, 4-1BB and CD3zeta signaling domains) (other)
chain: SSELTQDPAVSVALGQTVRITCQGDSLRSYYASWYQQKPGQAPVLVIYGKNNRPSGIPDRFSGSSSGNTASLTITGAQAEDEADYYCNSRDSSGNPPVVFGGGTKLTVLGSRGGGGSGGGGSGGGGSLEMAQVQLVESGGGLVHPGGSLRLSCAASGFTFRSHSMNWVRQAPGKGLEWVSSISSDSTYTYYADSVKGRFTISRDNAKNSLYLQMNSLRAEDTAVYYCARSGGQWKYYDYWGQGTLVTVSSESKYGPPCPPCPAPPVAGPSVFLFPPKPKDTLMISRTPEVTCVVVDVSQEDPEVQFNWYVDGVEVHNAKTKPREEQFQSTYRVVSVLTVLHQDWLNGKEYKCKVSNKGLPSSIEKTISKAKGQPREPQVYTLPPSQEEMTKNQVSLTCLVKGFYPSDIAVEWESNGQPENNYKTTPPVLDSDGSFFLYSRLTVDKSRWQEGNVFSCSVMHEALHNHYTQKSLSLSLGKMFWVLVVVGGVLACYSLLVTVAFIIFWVKRGRKKLLYIFKQPFMRPVQTTQEEDGCSCRFPEEEEGGCELRVKFSRSADAPAYQQGQNQLYNELNLGRREEYDVLDKRRGRDPEMGGKPRRKNPQEGLYNELQKDKMAEAYSEIGMKGERRRGKGHDGLYQGLSTATKDTYDALHMQALPPR
notes: Chimeric antigen receptor on the surface of Jurkat Nur77-RFP reporter cells or primary T cells; signal peptide left out; In the reporter constructs a T2A-GFP follows the CAR, so T2A residues may remain at the C-terminus
